Data reported in patent US20260258115A1.

B1: ADI-41166 (antibody, V domains shown)
VH: EVQLVQSGAEVKKPGASVKVSCKTSGYTFTGDYLHWVRQAPGQGLEWMGRLNPKSGGTVYAQRFQGRVTMTGDTSVTTAYMQLTRLRSDDTAIYYCARGIPVSGPVSIDYWGQGTLVTVSS
VL: QSVLTQPASLSGSPGQSITISCTGTSSDVGGYGYVSWYQQHPGKAPKLMIYDVANRPSGVSHRFSGSKSGNTASLTISGLQADDEADYYCSSYTRSNTVVFGGGTKLTVL
B2: ADI-41169 (antibody, V domains shown)
VH: EVQLVESGAEVKKPGESLKISCEAFGYSFTSYWIGWVRQVPGRGLEWIGVIYPGDSDIRYTPSFRGQVTISADRSISTAYLQWNNLKASDTAMYYCARPGRDINYYHSRDYGALDIWGQGTTVTVSS
VL: DIQLTQSPDSLAVSLGERVTINCKSSQSFLYSSNNKNYLAWYQQKPGQPPKLLIYWASVRESGVPDRFSGSGSGTDFTLTISSLQAEDVAVYYCQEYYSPPMFTFGQGTKVEIK
B3: ADI-41170 (antibody, V domains shown)
VH: EVQLLESGGGLIQPGGSLRLSCAASGFTFNNYVMSWVRQAPGKGLEWVAAISSSGVSTYYAASVKGRFTISRDNSKNMLYVQLNSLRAEDTAVYYCAKETGSYYYFDSWGQGTLVTVSS
VL: ETTLTQSPSTLSGSVGDRVTITCRASESISSWLAWYQQKPGKAPKLLIYKASNLESGVPSRFSGSGSGTEFTLTISSLQPDDFATYYCQQYNSYLITFGQGTRLEIK
B4: ADI-41171 (antibody, V domains shown)
VH: EVQLVESGPGLVKPSQTLSLTCTVSGGSISSGGDYWSWVRQRPGKGLEWIGYIYNSGSGYYNPSLKNRVSMSMHTSRNQFSLRLSSVTAADTAFYYCARDPFYRSGGIHYFDYWGQGALVTVSS
VL: DIVLTQTPGTLSLSPGEGATLSCRASPSVGSTSLAWYQQKPGQAPRLLIYGASSRATGIPDRFSGSGSGTDFTLTISRLEPEDFAVYYCQQDGGLPITFGLGTRLEIK
B5: ADI-41173 (antibody, V domains shown)
VH: QVQLVQSGAEMKKPGSSAKVSCKASGGTLSSYAINWVRQAPGQGLEWMGGIIPIFGTTKYAPKFQDRVTITVDESTSTAYMELSSLRSEDTAVYYCSRESSTWDVAHYFDYWGQGTLVTVSS
VL: DIVMTQTPSAISASVGDRVTITCRASQGISNYLAWVQQKPGKVPKRLIYGASSLQSGVPSRFSGSGSGTEFTLTISSLQPEDFATYYCLQHNSYPYTFGQGTKVEIK
B6: ADI-41175 (antibody, V domains shown)
VH: EVQLLESGGGVVQPGRSLRLSCATSGFTFSSYGMHWVRQAPGKGLEWVAVIYYEGSNKYYGDSVKGRFTISRDNSKSTLYLQMNRLRAEDTAVYYCARRPAGGFDYWGPGTLVTVSS
VL: EIVMTQSPLSLPVTPGEPASISCRSSQNLLNSNGYNYLDWYLQKPGQSPQLLIYLGSNRASGVPDRFSGSGSGTDFTLKISRVEAEDVGVYYCMQALQTPYTFGQGTKLEIK
B7: ADI-41179 (antibody, V domains shown)
VH: QVQLVQSGAEVKKPGSSVKISCKASGGTFSSHPISWVRQAPGQGLEWMGRIVPIFGIANYAQKFQGRVTMIADKSTNTAYMELSNLRSEDTAVYYCANPVYDSSGFQWGQGTLVTVSS
VL: QPVLTQPRSVSGSPGQSVTISCTGTSGDGGFYNYVSWYQQHPGKTPKLMIYDVDQRPSGVPDRFSGSKSGNTASLTISGLQAEDEADYYCCSYPGNPLYVFGTGTKVTVL
B8: ADI-41181 (antibody, V domains shown)
VH: QVQLVQSGAEVKKPGSSVKVSCKASGGSFSSYTLNWVRQAPGQGLEWMGRFVPIVGIANYAQKFQGRVTITADKSTSTVYMELSSLRSEDTAVYYCATAPTAYCSGDCYSLFDPWGQGTLVTVSS
VL: QSVLIQPASVSGSPGQSITISCTGISSDVGSYNLVSWYQQHPGKAPKLIIYEVNKRPSGVSNRFSGSKSGNTASLTISGLQAEDEADYYCCSYAVSRTSLYVFGTGTKVTVL
B9: ADI-41182 (antibody, V domains shown)
VH: QVQLVQSGAEVKKPGESLKISCQGSGYSFTSYWIGWVRQMPGKDLEWMGIIYPSDSDTRYSPSFQGQVTISVDKSINTAYLQWTSLKASDTAMYYCARCDGAVYWYFDLWGRGTLVTVSS
VL: EIVLTQSPATLSVSPGERVTLSCRASRSVSSHLAWYQQKPGQAPRLLMYGASTRATGIPARFSGSGSGTEFTLTISSLQSEDFGVYYCQQYNNWPPALTFGGGTKLEIK
B10: ADI-41183 (antibody, V domains shown)
VH: QVQLQESGAGLVKPSETLSLTCGVYGESFSGHSWSWIRQPPGRGLEWIGEINQSGTTKYNPSLRSRVTISVDRSKNEFSLKVSSVTAADTAVYFCARYFRSFYTIGPDYYYMDVWGKGTTVTVSS
VL: EIVLTQSPSSLSASVGDRVTITCRASQNINNYLNWYQQKPGKAPRLLIYAASSLQSGVPSRFTGSGSGTDFTLTIRSLQSEDFATYYCQHSYSSSLLTFGGGTKVDIK
B11: ADI-41184 (antibody, V domains shown)
VH: EVQLLETGGGLVQPGGSLRLSCAASGFTFSSYDMNWVRQAPGKGLEWVSTISGSGGPTYYAGSVKGRFTISRDNSKNTLYLQMNSLRADDTAVYYCAKAQLYDTSGYYLYYFDYWGQGTLVTVSS
VL: DIRMTQSPSSLSASVGDRVTITCRASQRITSYLNWYQQKPGKAPKLLIYAASSLQSGVPSRFSGSGSGTDFTLTISSLQPEDFATYFCQQSYSTSFTFGPGTKVDIK
B12: ADI-41185 (antibody, V domains shown)
VH: QVQLQQWGAGLLKPSETLSLTCAVYGGSFSSYYYSWIRQPPGKGLEWIGEINQSGSTNYNPSLKSRVTISVDTSKNEFSLKLSSVTAADTAVYYCARIVREFNTRWYDYYYMDVWGKGTTVTVSS
VL: DIRVTQSPATLSLSPGERATLSCRTSQSISSSYLAWYQQKFGQAPRLLIYGASSRATGIPDRFSGSGSGTDFTLTISRLEPEDFAVYYCQQYGISPPMYTFGQGTKVEIK
B13: ADI-41186 (antibody, V domains shown)
VH: EVQLLESGAEVKKPGESLKISCKGSGYSFSSYWIAWVRQMPGKGLEWMGIIYPSDSDTKYSPSFQGQVTISADKSISTAYLQWSSLKASDTAMYYCARQAGIQRPLDYWGQGTLVTVSS
VL: EIVMTQSPATLSVSPGERATLSCRASQSVRSNLAWYQQKPGQAPRLLIYDASTRATGISARFSGSGSGTEFTLTISSLQSEDFAVYYCQQFHNWPPYTFGQGTKVEIK
B14: ADI-41189 (antibody, V domains shown)
VH: QVQLVESGGGLVKPGGSLRLSCAASGFTFSSYSMNWVRQAPGKGLEWVSSMSSSSGYIDYADSVKGRFTISRDNAKNSLYLQMNSLRVEDTAVYYCARRNAVVVPSLMVVADYYYGMDVWGQGTTVTVSS
VL: QSVLTQPPSVSGAPGQRVTISCTGSSSNIGAGYDVHWYQQLPGTAPKLLIYGNSNRPSGVPDRFSGSKSGTSASLAITGLQAEDEADYYCQSYDTSLSGPGYVFGTGTKLTVL
B15: ADI-41190 (antibody, V domains shown)
VH: QVQLVQSGAEVKKPGASVKVSCKAFGYTFRSYDMQWVRQAPGQRLEWMGWINAVNGDTKYSQKFQGRVTITRDTSATTVYMELSSLRSEDTAVYYCARWGRFWNSRSLDYYAMDVWGQGTTVTVSS
VL: DIVMTQSPGTLSLSPGERATLSCRASQSISSSYLVWYQHKPGQAPRLLIYGASTRATDIPDRFSGSGSGTDFTLTISRLEPEDFAVYYCQQYGSSPLTFGQGTRLEIK
B16: ADI-41196 (antibody, V domains shown)
VH: EVQLVESGGGLVQPGGSLRLSCIVSGFPFNTYAMSWVRQAPGKGLEWVSVVSASGGNTDYADSVKGRFTISRDNSKKTLYLQMNSLRAEDTAVYYCARTESNTLAPSWSGRYVTDWYFDLWGRGTLVTVSS
VL: EIVMTQSPSSLSASVGDRVTITCRASQSISSFLNWYQQKPGKAPKLLISAASSLQSGVPSRFSGSGSGTDFTLTISSLQPEDFATYYCQQSYSIPTFGQGTRLEIK
B17: ADI-41197 (antibody, V domains shown)
VH: QVQLVQSGAEVKKPGASVKVSCKASGYTFSGYYMHWVRQAPGQGLEWVGRINPKSGDTVYAQKFQGRVTMTRDTSISTAYMELSRLISDDTAKYYCARQEDHYYGSGNFYNSFDFWGQGTLVTVSS
VL: ETTLTQSPSSLSASVGDRVTITCRASQSISSNLNWYQQKPGKAPKLLIYGASTLQSGVPSRFSGSGSGTDFTLTISSLQPEDLATYYCQQSYSNPGKTFGQGTKVDIK
B18: ADI-41200 (antibody, V domains shown)
VH: EVQLLESGGGLVKPGGSLRLSCAASGLTFSDHDMSWVRQAPGKGLEWVSGIGGSGSNTYYAGSVKGRFTISRDNSKNTLYLQMDSLRVEDTAVYYCAKDPYGDYRDYYGMDVWGQGTTVTVSS
VL: DIVLTQTPFSLPVTPGEPASISCRSSQSLLKSNGYNYLDWFLQKPGQSPQLLIYLGSNRASGVPDRFSGSGSGTDFTLKISRVEAEDVGVYYCMQTLQALYTFGQGTKVEIK
B19: ADI-41201 (antibody, V domains shown)
VH: EVQLLESGGGLVQPGGSLRLSCAASGFAFDIYSMNWVRQAPGKGLEWLSYISSRGETIYYADSVKGRFTISRDNARNSLYLQMNGLRDEDTATYYCYYYGSGISSHGGAFDYWGQGTLVTVSS
VL: DIVMTQTPATLSLSPGERATLTSRASQSVSSFLAWYQQKPGQAPRLLIYDVSNRATGVPARFSGSGSGTDFTLTISSLEPEDIAVYYCQQRNTWPAITFGQGTKVEIK

Biological target: RSV postfusion F (postF), F deltaFP (Respiratory Syncytial Virus)
Experiment: BLI, IgG on anti-human IgG sensor, 100 nM antigen

| Binder | Kd [nM] |
| --- | --- |
| B1 | 0.44 |
| B2 | 1.19 |
| B3 | 2.64 |
| B4 | 4.26 |
| B5 | 0.294 |
| B6 | 1.07 |
| B7 | 0.342 |
| B8 | 0.936 |
| B9 | 0.462 |
| B10 | 1 |
| B11 | 0.532 |
| B12 | 0.809 |
| B13 | 0.703 |
| B14 | 0.608 |
| B15 | 0.971 |
| B16 | 0.595 |
| B17 | 0.531 |
| B18 | 0.318 |
| B19 | 0.637 |

Biological target: RSV prefusion F (preF), DS-Cav1 (Respiratory Syncytial Virus)
Experiment: BLI, IgG on anti-human IgG sensor, 100 nM antigen

| Binder | Kd [nM] |
| --- | --- |
| B1 | 3.15 |
| B2 | 4.94 |
| B3 | 5.67 |
| B4 | 9.8 |
| B5 | 0.315 |
| B6 | 4.25 |
| B7 | 0.948 |
| B8 | 1.95 |
| B9 | 2.55 |
| B10 | 4.08 |
| B11 | 2.85 |
| B12 | 3.23 |
| B13 | 3.01 |
| B14 | 2.86 |
| B15 | 2.29 |
| B16 | 2.92 |
| B17 | 0.795 |
| B18 | 0.334 |
| B19 | 3.82 |

Biological target: Respiratory Syncytial Virus fusion glycoprotein (RSV F) on RSV-A2 virus (Respiratory Syncytial Virus subtype A (RSV-A2))
Experiment: cell-based or functional assay

| Binder | Neutralization IC50 (RSV subtype A) [µg/mL] |
| --- | --- |
| B1 | > 25 |
| B2 | > 25 |
| B3 | > 25 |
| B4 | > 25 |
| B5 | 0.08 |
| B6 | > 25 |
| B7 | > 25 |
| B8 | > 25 |
| B9 | > 25 |
| B10 | > 25 |
| B11 | > 25 |
| B12 | > 25 |
| B13 | > 25 |
| B14 | > 25 |
| B15 | > 25 |
| B16 | > 25 |
| B17 | 0.27 |
| B18 | > 25 |
| B19 | > 25 |
